B1: soluble mouse SR-A6 (entire extracellular part) (domain or fragment)
chain: QVLNLQEQLQMLEMCCGNGSLAIEDKPFFSLQWAPKTHLVPRAQGLQALQAQLSWVHTSQEQLRQQFNNLTQNPELFQIKGERGSPGPKGAPGAPGIPGLPGPAAEKGEKGAAGRDGTPGVQGPQGPPGSKGEAGLQGLTGAPGKQGATGAPGPRGEKGSKGDIGLTGPKGEHGTKGDKGDLGLPGNKGDMGMKGDTGPMGSPGAQGGKGDAGKPGLPGLAGSPGVKGDQGKPGVQGVPGPQGAPGLSGAKGEPGRTGLPGPAGPPGIAGNPGIAGVKGSKGDTGIQGQKGTKGESGVPGLVGRKGDTGSPGLAGPKGEPGRVGQKGDPGMKGSSGQQGQKGEKGQKGESFQRVRIMGGTNRGRAEVYYNNEWGTICDDDWDNNDATVFCRMLGYSRGRALSSYGGGSGNIWLDNVNCRGTENSLWDCSKNSWGNHNCVHNEDAGVECS
notes: SR-A6 (MARCO), mouse, the entire extracellular part; Largely monomeric with a small amount of trimers (15-20%) in non-reducing SDS-PAGE; also called mSR-A6 soluble; soluble SR-A6

Legend:
[1] = target: mouse SR-A6 expressed in L-929 cells (mouse) (UniProt Q60754); test: binding of fluorophore-labelled virions to cells, confocal microscopy; Alexa-Fluor488-labelled HAdV-C5 bound at 4°C to L-929 cells transfected with mouse SR-A6-IRES-Tomato; Tomato-positive against Tomato-negative cells
[2] = target: the molecule itself; test: non-reducing SDS-PAGE; purified soluble mSR-A6; monomers and trimers

| Molecule | fold, mean cell-associated virus number in Tomato-positive over Tomato-negative cells [1] [fold] | stoichiometry N [2] |
| --- | --- | --- |
| human adenovirus type C5 (HAdV-C5) virion (complex) | 7 | – |
| B1 | – | 3 |
